Assays:
[1] = biological target: anti-nAChR autoantibody mAb35 (an autoantibody to rat nAChR), purified from supernatant of hybridoma Mab35 (ATCC TIB-175); assay: ELISA; mAb35 immobilised at 2500 ng/mL, α1-Fc added, detected with HRP-labeled anti-human Fc antibody
[2] = biological target: anti-nAChR autoantibody mAb35 (an autoantibody to rat nAChR), purified from supernatant of hybridoma Mab35 (ATCC TIB-175); assay: ELISA; mAb35 immobilised at 10000 ng/mL, α1-Fc added, detected with HRP-labeled anti-human Fc antibody
[3] = biological target: anti-nAChR autoantibody mAb35 (an autoantibody to rat nAChR), purified from supernatant of hybridoma Mab35 (ATCC TIB-175); assay: ELISA; mAb35 immobilised at 9.8 ng/mL, α1-Fc added, detected with HRP-labeled anti-human Fc antibody
[4] = biological target: anti-nAChR autoantibody mAb35 (an autoantibody to rat nAChR), purified from supernatant of hybridoma Mab35 (ATCC TIB-175); assay: ELISA; mAb35 immobilised at 39.1 ng/mL, α1-Fc added, detected with HRP-labeled anti-human Fc antibody
[5] = biological target: anti-nAChR autoantibody mAb35 (an autoantibody to rat nAChR), purified from supernatant of hybridoma Mab35 (ATCC TIB-175); assay: ELISA; mAb35 immobilised at 625 ng/mL, α1-Fc added, detected with HRP-labeled anti-human Fc antibody
[6] = biological target: anti-nAChR autoantibody mAb35 (an autoantibody to rat nAChR), purified from supernatant of hybridoma Mab35 (ATCC TIB-175); assay: ELISA; mAb35 immobilised at 156.3 ng/mL, α1-Fc added, detected with HRP-labeled anti-human Fc antibody
[7] = biological target: anti-nAChR autoantibody presented on the cell surface of hybridoma Mab35 (ATCC TIB-175); assay: cell-based or functional assay

Work on “fusion protein α1-Fc, consisting of an N-terminal extracellular region of isoform 1 of human nAChRα1 subunit and a human antibody heavy chain Fc region (Fc fusion)” yielded an Absorbance A450 nm [1] of 1.12 A450 nm, an Absorbance A450 nm [2] of 1.23 A450 nm and an Absorbance A450 nm [3] of 0.505 A450 nm. The Absorbance A450 nm [4] was 0.557 A450 nm, the Absorbance A450 nm [5] was 0.871 A450 nm and the Absorbance A450 nm [6] was 0.659 A450 nm. It also gave a cellular cytotoxicity (%) (ADCC activity) by NK 92 effector cells on Calcein-AM-loaded hybridoma Mab35 [7] of 50%.

Source: patent US20120123099A1
